Experiment in all cases: EMSA
Data set [1] concerns the target Polµ WT (Homo sapiens, UniProt Q9NP87).
Data set [2] has as its target T1, Polλ Q243R (Homo sapiens, UniProt Q9UGP5 1-575, Q243R).
T1 sequence: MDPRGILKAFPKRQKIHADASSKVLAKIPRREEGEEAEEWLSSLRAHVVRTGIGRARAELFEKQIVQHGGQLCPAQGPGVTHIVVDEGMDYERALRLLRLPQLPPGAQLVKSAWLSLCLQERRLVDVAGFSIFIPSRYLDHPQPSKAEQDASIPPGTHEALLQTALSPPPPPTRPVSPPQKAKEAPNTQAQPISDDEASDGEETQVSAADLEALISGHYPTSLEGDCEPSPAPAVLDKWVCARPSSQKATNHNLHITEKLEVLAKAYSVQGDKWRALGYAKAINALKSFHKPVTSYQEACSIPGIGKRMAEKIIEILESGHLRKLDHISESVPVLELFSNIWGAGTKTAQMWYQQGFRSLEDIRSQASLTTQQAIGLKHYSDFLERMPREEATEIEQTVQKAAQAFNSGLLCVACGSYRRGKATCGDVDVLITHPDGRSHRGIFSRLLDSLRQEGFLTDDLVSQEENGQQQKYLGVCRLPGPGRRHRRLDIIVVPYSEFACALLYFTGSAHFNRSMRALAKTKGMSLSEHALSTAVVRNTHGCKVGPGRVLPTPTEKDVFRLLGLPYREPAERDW

Data set [3] has as its target T2, Polλ W239Y (Homo sapiens, UniProt Q9UGP5 1-575, W239Y).
T2 sequence: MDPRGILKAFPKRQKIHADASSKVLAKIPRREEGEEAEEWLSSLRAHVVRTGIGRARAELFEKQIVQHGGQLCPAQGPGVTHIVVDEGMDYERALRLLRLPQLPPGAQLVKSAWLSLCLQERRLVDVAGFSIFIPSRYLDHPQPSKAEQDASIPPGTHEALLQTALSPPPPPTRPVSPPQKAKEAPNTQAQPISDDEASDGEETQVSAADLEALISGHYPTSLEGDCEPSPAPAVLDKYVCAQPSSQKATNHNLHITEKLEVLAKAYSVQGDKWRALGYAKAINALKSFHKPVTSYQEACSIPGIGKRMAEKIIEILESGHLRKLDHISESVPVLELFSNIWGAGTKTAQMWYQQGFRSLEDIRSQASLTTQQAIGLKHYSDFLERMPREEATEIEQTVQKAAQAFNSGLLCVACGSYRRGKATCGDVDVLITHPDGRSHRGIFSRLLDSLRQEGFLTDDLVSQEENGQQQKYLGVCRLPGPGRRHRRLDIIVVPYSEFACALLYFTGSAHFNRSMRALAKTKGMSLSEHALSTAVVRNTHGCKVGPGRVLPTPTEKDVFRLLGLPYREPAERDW

Polµ WT, sequence (Q9NP87 whole entry): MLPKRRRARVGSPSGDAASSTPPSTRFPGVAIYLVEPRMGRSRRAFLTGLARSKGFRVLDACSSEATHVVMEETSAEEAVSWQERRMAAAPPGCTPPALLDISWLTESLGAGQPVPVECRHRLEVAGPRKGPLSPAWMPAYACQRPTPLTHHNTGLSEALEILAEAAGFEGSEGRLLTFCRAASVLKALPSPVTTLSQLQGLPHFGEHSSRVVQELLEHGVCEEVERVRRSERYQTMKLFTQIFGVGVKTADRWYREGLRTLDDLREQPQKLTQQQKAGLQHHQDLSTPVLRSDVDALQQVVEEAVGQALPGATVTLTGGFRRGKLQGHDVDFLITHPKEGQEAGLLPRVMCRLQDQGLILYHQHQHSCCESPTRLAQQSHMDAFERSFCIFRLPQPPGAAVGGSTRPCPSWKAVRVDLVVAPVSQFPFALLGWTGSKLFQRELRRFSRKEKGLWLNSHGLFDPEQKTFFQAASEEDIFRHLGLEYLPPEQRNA

B1: 1 nt gap Sp1C/T13C/DG1-P (dsDNA)
DNA 1: GATCACAGTGAGTAC
DNA 2: AGAAGTGTATCTCGTACTCACTGTGATC
DNA 3: AGATACACTTCT
modifications: 5'-phosphate on DG1-P
For the molecule B1, the binding result in data set [1] is reported as “binds”.

B2: 5 nt gap FP-P/FP-T5/FP-D (dsDNA)
DNA 1: GGCCACGCAATGTTGACGTTTTTCGACAAGACCTCAGTAT
DNA 2: GGCAGCTTGGATCTTGTCGAAAAACGTCAACATTCGCCTAGGCTTCGGCAGCATATACTGAGGTCTTGTCGAAAAACGTCAACATTGCGTGGCC
DNA 3: GCCGAAGCCTAGGCGAATGTTGACGTTTTTCGACAAGATCCAAGCTGCC
modifications: 5'-phosphate on FT-D
Turning to B2, the binding result in data set [2] and in data set [3] was “binds” in each case.

(Values after publication PMC3799444.)
